In publication PMC2807882, “Conservation of DNA-binding specificity and oligomerisation properties within the p53 family” one finds Kd data, which are given here for 1 molecule.

Test in all cases: fluorescence anisotropy competition titration; 25 mM sodium phosphate (purification buffer pH 7.2), 225 mM NaCl, 10% v/v glycerol, 5 mM DTT, 0.2 mg/mL BSA, 22 C
What all share (settings): protein: recombinant; tags: N-terminal 6xHis-lipoyl-TEV tag, cleaved; chain copies: 4

One series concerns the target T1, ΔNp73β (Homo sapiens, UniProt O15350-9 1-450).
T1 sequence: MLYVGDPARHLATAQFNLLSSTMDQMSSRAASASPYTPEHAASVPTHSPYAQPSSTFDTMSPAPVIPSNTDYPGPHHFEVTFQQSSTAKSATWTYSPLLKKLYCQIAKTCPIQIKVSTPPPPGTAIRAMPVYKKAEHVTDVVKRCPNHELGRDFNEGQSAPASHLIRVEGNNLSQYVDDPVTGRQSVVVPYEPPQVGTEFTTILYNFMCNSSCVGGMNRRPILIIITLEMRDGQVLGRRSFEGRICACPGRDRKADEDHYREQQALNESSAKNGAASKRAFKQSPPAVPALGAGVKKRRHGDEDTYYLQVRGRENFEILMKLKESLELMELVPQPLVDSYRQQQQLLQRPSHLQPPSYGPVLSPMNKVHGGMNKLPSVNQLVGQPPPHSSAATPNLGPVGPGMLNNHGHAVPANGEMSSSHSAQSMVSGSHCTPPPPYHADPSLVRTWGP

The target in another series is T2, ΔNp63β (Homo sapiens, UniProt Q9H3D4-4 1-461).
T2 sequence: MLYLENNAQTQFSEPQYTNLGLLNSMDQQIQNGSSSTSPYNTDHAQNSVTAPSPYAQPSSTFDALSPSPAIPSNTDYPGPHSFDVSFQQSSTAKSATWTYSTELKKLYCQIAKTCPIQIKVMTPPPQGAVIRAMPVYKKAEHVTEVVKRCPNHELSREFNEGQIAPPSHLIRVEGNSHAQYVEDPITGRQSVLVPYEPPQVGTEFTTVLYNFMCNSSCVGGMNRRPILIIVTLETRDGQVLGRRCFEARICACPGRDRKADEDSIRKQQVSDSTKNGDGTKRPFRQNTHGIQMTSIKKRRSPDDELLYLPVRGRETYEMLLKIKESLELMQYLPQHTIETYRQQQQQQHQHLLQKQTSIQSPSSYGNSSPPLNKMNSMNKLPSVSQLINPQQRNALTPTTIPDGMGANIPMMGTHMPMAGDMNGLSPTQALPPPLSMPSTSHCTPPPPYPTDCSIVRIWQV

The target of another series is T3, ΔNp63α (Homo sapiens, UniProt Q9H3D4-2 1-586).
T3 sequence: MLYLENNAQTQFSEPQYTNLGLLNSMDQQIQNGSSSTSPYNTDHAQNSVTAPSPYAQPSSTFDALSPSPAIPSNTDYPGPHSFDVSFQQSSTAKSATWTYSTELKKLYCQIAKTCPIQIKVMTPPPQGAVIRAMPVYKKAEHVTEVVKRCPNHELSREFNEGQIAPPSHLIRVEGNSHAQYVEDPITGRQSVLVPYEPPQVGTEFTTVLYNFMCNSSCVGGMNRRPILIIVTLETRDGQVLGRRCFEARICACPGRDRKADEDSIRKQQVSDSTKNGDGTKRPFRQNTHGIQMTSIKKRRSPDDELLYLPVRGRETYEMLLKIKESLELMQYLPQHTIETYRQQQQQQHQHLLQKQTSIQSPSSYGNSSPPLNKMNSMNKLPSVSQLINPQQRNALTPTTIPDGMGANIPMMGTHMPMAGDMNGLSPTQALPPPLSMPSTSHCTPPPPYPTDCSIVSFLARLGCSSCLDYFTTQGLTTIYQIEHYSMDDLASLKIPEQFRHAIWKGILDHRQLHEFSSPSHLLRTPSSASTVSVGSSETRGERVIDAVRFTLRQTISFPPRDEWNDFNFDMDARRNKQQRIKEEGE

B1: Ref competitor (dsDNA)
DNA 1: CGCGGACATGTCCGGACATGTCCCGC
DNA 2: GCGGGACATGTCCGGACATGTCCGCG
Take B1: the Kd was determined as 24 nM with ΔNp73β, 35.5 nM with ΔNp63β and 61.7 nM with ΔNp63α.

As usually defined, the Kd is the equilibrium constant for the complex coming apart.
